For assay [1], the target named is haptoglobin Hp(1-1) (human) (UniProt P00738). Briefly: MST; Monolith NT.115, 25 °C, 20 mM HEPES pH 7.5, 150 mM NaCl, […] CaCl2; Alexa Fluor 647-labelled Hb (200 nM) or Hp(1-1) (500 nM or 1.0 μM) held constant, CD163 ectodomain (WT or R809T-BAP) titrated.
Assay [2] addresses CD163 ectodomain (CD163-WT) (human) (UniProt Q86VB7).
Assay [3] has as its target T1, CD163-WT ectodomain (C-tag, without BAP tag) (human, UniProt Q86VB7-1 46-1050).
T1 construct: Cloned into pHLsec with a C-terminal GAA linker and a C-tag; Dimers and trimers in the cryo-EM structures; also called WT CD163; CD163A
Nature of the assay: MST; Monolith NT.115, 25 °C; 20 mM HEPES pH 7.5, 150 mM NaCl, 2.5 mM CaCl2; fluorescent Hb (200 nM) or Hp(1-1) (0.50 µM) mixed with two-fold dilution series of CD163 (WT from 24.4 or 37.9 µM, R809T from 41.5 µM); fit to the combined triplicate. The following applies: both partners purified.

The results in this text go back to article PMC12274614, “Scavenger receptor CD163 multimerises to allow uptake of diverse ligands” (Nature Communications, 2025).

As usually defined, the Kd is a measure of binding affinity in units of concentration.

As to “CD163 ectodomain (CD163-WT) (from UniProt Q86VB7-1 46-1050) (domain or fragment)”, in assay [1], the Kd came to 27 µM.

For “Hp(2-2)Hb (haptoglobin isoform 2 - haemoglobin complex) (from UniProt P00738-1 19-160; P00738-1 162-406)”, in assay [2], the IC50 of competition for the uptake of 50 nM labelled Hp(2-2)Hb into HEK293 cells expressing full-length CD163-GFP, FACS is 0.04 µM and the uptake of fluorescently labelled Hp(2-2)Hb (0-600 nM) into HEK293 cells with or without full-length CD163-GFP (residues 46-1156), FACS stood at 10 fold.

B1: Haptoglobin Hp(1-1), fluorescently labelled (natural protein)
chain 1: VDSGNDVTDIADDGCPKPPEIAHGYVEHSVRYQCKNYYKLRTEGDGVYTLNNEKQWINKAVGDKLPECEAVCGKPKNPANPVQ
chain 2: ILGGHLDAKGSFPWQAKMVSHHNLTTGATLINEQWLLTTAKNLFLNHSENATAKDIAPTLTLYVGKKQLVEIEKVVLHPNYSQVDIGLIKLKQKVSVNERVMPICLPSKDYAEVGRVGYVSGWGRNANFKFTDHLKYVMLPVADQDQCIRHYEGSTVPEKKTPKSPVGVQPILNEHTFCAGMSKYQEDTCYGDAGSAFAVHDLEEDTWYATGILSFDKSCAVAEYGVYVKVTSIQDWVQKTIAEN
modifications: Alexa Fluor 647 (NHS ester labelling of the protein; sites not stated) | Alexa Fluor 647 (NHS ester labelling of the protein; sites not stated)
In the case of B1, in assay [3], the Kd is 26.6 µM.
